Sequences and labels used below:
B1: anti-GUCY2C single chain Fv (aGUCY2C-scFv) fragment of PF-07062119 (scFv, V domains shown)
VH: EVQLVESGGGLVQPGGSLRLSCAASGFTFSSYWMHWVRQAPGKGLEWIGEIKPSNELTNVHEKFKDRFTISVDKAKNSAYLQMNSLRAEDTAVYYCTRTITTTEGYWFFDVWGQGTLVTVSS
VL: DIQLTQSPSSLSASVGDRVTITCRASESVDYYGSSLLQWYQQKPGKAPKLLIYAASKLASGVPSRFSGSGSGTDFTLTISSLQPEDFATYYCQQTRKAYTFGQGTKLEIK
notes: Fc removed with AcTEV protease; also called anti-GUCY2C-scFv; source: Expi293F, transfected (with kifunensine), purified (MAb Select Sure, Superdex 200 SEC, TEV cleavage); not shown: Fc, C-terminal, cleaved
B2: GUCY2C-1608 (IgG version of PF-07062119) (antibody, V domains shown)
VH: EVQLVESGGGLVQPGGSLRLSCAASGFTFSSYWMHWVRQAPGKGLEWIGEIKPSNELTNVHEKFKDRFTISVDKAKNSAYLQMNSLRAEDTAVYYCTRTITTTEGYWFFDVWGQGTLVTVSS
VL: DIQLTQSPSSLSASVGDRVTITCRASESVDYYGSSLLQWYQQKPGKAPKLLIYAASKLASGVPSRFSGSGSGTDFTLTISSLQPEDFATYYCQQTRKAYTFGQGTKLEIK
notes: as the VH in aGUCY2C-scFv; as the VL in aGUCY2C-scFv; IgG detected with an anti-human IgG secondary antibody; also called GUGY2C-1608; Ab GUCY2C-1608

The target in the first test is PF-07062119, anti-GUCY2CxCD3 bispecific antibody. Put plainly: flow cytometry of yeast-displayed GUCY2C ECD. The conditions noted are these: 2 independent experiments, triplicate samples; parent: est. 36; read off a plot. In general terms: A flow cytometer gives signals particle by particle.
Turning to “human GUCY2C ECD displayed on yeast (CID1814) (from UniProt P25092) D81E”, the response turned out to be 33.

Take “human GUCY2C ECD displayed on yeast (CID1814) (from UniProt P25092) I66L”: the response is 34.

Consider “human GUCY2C ECD displayed on yeast (CID1814) (from UniProt P25092) K85Q”, for which the response was 50.

On to “human GUCY2C ECD displayed on yeast (CID1814) (from UniProt P25092) L83I”, for which the response is 28.

In the case of “human GUCY2C ECD displayed on yeast (CID1814) (from UniProt P25092) R84K”, the response was found to be 48.

“human GUCY2C ECD displayed on yeast (CID1814) (from UniProt P25092) S15N”: the response turned out to be 21.

With “human GUCY2C ECD displayed on yeast (CID1814) (from UniProt P25092) S62F”, the response turned out to be 30.

As to “human GUCY2C ECD displayed on yeast (CID1814) (from UniProt P25092) S74T”, the response was determined as 41.

For the molecule “human GUCY2C ECD displayed on yeast (CID1814) (from UniProt P25092) S87F”, the response was found to be 32.

Still in this test, the particulars now being: 2 independent experiments, triplicate samples; parent: est. 130; read off a plot.
Regarding “human GUCY2C ECD displayed on yeast (CID1814) (from UniProt P25092) A331E; L335I”, the response amounted to 110.

Regarding “human GUCY2C ECD displayed on yeast (CID1814) (from UniProt P25092) N21D; A23D; D71G”, the response was found to be 43.

Consider “human GUCY2C ECD displayed on yeast (CID1814) (from UniProt P25092) Q210R; E230A; D238T; E259R”, for which the response stood at 220.

On to “human GUCY2C ECD displayed on yeast (CID1814) (from UniProt P25092) S163T; G403S”, for which the response is 96.

For “human GUCY2C ECD displayed on yeast (CID1814) (from UniProt P25092) Y109V; T133N”, the response turned out to be 97.

Regarding “human GUCY2C ECD displayed on yeast (CID1814) (from UniProt P25092) human 153-166 substituted with chicken residues 151-164”, the response is 37.

Turning to “human GUCY2C ECD displayed on yeast (CID1814) (from UniProt P25092) human 172-178 substituted with chicken residues 170-176”, the response amounted to 140.

For “human GUCY2C ECD displayed on yeast (CID1814) (from UniProt P25092) human 198-206 substituted with chicken residues 196-204”, the response is 160.

Consider “human GUCY2C ECD displayed on yeast (CID1814) (from UniProt P25092) human 207-217 substituted with chicken residues 205-215”, for which the response was determined as 150.

For “human GUCY2C ECD displayed on yeast (CID1814) (from UniProt P25092) human 238-243 substituted with chicken residues 236-241”, the response is 110.

In the case of “human GUCY2C ECD displayed on yeast (CID1814) (from UniProt P25092) human 259-269 substituted with chicken residues 257-267”, the response stood at 80.

As to “human GUCY2C ECD displayed on yeast (CID1814) (from UniProt P25092) human 363-376 substituted with chicken residues 361-374”, the response was found to be 65.

The test is the same for the next values; noted with them: 2 independent experiments, triplicate samples; read off a plot.
Take “chicken GUCY2C ECD displayed on yeast (CID1818) (from UniProt E1BZE2) chicken residues 70-84 replaced by human 73-87”: the response turned out to be 11.

As to “chicken GUCY2C ECD displayed on yeast (CID1818) (from UniProt E1BZE2) chicken residues 71-89 replaced by human 74-92”, the response amounted to 14.

The target of the next test is T1, GUCY2C ECD peptide 19 (68-NSGDCRSSTCEGLDLLRKIS-87) (human).
T1 construct: human GUCY2C residues 68-87; numbers count on: the mature protein (91-110 of P25092); In the crystal the peptide holds the disulfide bond Cys72-Cys77; also called GUCY2C-peptide; 68GUCY2C-peptide87; source: synthetic peptide (New England Peptide arrays for the DELFIA; chemically synthesized for the crystal)
T1 chain: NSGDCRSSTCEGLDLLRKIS
Put plainly: crystal structure; aGUCY2C-scFv with GUCY2C-peptide 68-87, complex formed at 1:1.2 molar ratio; 1.6 A; two complexes in the asymmetric unit. Conditions: both partners purified.
With B1, the binding result is recorded as “binds”.

The target of another test is T2, human GUCY2C ECD, purified (from HuGUCY2C_ECD_TEV_muIgG2amutFc_Flag) (human, UniProt P25092).
T2 construct: human GUCY2C extracellular domain, residues 1-407; numbers count on: the mature protein (24-430 of P25092); For the crystal the complex with the scFv was treated with endoglycosidase H. The limits 1-407 are stated for the crystallised ECD; also called full GUCY2C ECD; full length GUCY2C-ECD; source: Expi293F, transfected (with kifunensine), purified (MAb Select Sure, Superdex 200 SEC, TEV …)
T2 sequence (P25092 24-407): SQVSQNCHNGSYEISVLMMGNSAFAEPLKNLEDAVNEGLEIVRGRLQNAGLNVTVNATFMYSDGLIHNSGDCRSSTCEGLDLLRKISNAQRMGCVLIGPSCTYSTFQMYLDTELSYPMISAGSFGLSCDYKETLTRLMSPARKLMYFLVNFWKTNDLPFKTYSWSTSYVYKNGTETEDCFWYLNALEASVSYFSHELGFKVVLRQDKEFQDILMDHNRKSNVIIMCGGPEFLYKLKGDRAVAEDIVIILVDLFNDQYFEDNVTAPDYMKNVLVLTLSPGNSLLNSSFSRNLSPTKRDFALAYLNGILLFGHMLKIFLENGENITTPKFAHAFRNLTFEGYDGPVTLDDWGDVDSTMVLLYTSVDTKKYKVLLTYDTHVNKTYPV
Put plainly: crystal structure; aGUCY2C-scFv with GUCY2C-ECD (1-407), mixed at 1.2:1, treated with endoglycosidase H, purified by SEC; 3.52 A; one complex in the asymmetric unit. The conditions noted are these: both partners purified. A general note: Size exclusion chromatography separates by hydrodynamic size, large species first.
For the molecule B1, the binding result is on record as “binds”.

In a further test the target is T1, GUCY2C ECD peptide 19 …. The experiment in a line: ELISA; DELFIA competition ELISA; human GUCY2C ECD coated at 1 ug/ml; GUCY2C-1608 at EC80 mixed with peptide 19 serially diluted 1:3 from 10 ug/ml; anti-human IgG europium detection. The conditions noted are these: both partners purified. Background: In an ELISA, binding on a coated surface is turned into a signal by an enzyme label.
Regarding B2, the binding result was “binds”.

The target of a further test is T2, human GUCY2C ECD, purified (from …). Described as above. Conditions: both partners purified.
As to B2, the binding result is given as “binds”.

For the origin of these results see PMC10435522, “Molecular insights into recognition of GUCY2C by T-cell engaging bispecific antibody anti-GUCY2CxCD3” (Scientific Reports, 2023).
